One data set addresses T1, FLAG-tagged GLI2, P10070.
T1 chain: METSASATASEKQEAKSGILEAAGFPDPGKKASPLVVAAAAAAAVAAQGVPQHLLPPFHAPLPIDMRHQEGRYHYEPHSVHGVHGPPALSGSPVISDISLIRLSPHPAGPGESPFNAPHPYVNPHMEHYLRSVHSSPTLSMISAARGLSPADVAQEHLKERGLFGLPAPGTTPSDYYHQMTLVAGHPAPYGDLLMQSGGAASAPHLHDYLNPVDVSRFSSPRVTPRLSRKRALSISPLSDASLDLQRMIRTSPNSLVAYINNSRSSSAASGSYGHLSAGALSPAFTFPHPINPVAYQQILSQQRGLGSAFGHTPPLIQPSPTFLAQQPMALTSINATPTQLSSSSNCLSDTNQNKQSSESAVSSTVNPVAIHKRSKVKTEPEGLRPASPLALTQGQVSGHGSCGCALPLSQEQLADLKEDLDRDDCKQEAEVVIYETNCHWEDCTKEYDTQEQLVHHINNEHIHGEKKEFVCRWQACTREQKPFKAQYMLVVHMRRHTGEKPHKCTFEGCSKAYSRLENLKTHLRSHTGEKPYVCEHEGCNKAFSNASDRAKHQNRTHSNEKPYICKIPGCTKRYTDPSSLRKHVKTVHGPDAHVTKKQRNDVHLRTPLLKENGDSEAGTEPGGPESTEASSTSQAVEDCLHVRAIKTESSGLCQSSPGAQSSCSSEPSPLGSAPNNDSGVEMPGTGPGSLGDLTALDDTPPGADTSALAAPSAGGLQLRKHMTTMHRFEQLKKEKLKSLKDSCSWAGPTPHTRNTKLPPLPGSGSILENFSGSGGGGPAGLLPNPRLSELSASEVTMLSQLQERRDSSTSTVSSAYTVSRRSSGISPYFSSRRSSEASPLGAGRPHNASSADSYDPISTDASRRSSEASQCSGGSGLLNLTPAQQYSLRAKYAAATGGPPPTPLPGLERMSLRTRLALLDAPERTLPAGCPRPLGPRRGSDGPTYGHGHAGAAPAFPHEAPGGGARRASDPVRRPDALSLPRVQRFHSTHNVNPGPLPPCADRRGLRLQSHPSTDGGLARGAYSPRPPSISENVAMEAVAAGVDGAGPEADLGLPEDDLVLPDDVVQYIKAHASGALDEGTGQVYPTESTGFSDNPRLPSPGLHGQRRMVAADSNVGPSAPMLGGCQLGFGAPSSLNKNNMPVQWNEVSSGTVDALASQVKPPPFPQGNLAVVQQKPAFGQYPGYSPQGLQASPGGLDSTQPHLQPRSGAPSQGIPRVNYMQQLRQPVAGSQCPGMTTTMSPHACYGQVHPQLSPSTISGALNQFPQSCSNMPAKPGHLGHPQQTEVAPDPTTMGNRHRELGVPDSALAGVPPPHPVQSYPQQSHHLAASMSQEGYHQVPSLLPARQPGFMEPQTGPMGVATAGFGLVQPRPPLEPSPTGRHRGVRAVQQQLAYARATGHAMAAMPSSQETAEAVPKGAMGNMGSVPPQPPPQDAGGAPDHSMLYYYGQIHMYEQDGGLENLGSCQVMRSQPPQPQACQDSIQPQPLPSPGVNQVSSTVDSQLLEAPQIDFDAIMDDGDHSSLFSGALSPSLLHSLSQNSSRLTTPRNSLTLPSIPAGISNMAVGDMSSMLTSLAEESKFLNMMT

The next data set concerns GLI2. Description: In vitro kinase assay, phosphorylation of GLI2. The following applies: FLAG-tagged GLI2 immunoprecipitated from HEK293 cells. It is filed as biochemical. The protocol: (§1) HEK293 cells were transfected with 13.5 μg of FLAG-tagged constructs expressed GLI1, GLI2, GLI3, ULK3, ULK3(K44R), ULK3(K139R) or FLAG-CMV-4 empty vector on 10 cm plates. The cells were lysed with 0.5 ml of Lysis Buffer (50 mM Tris HCl, pH 7.4, 150 mM NaCl, 1 mM EDTA, 1% Triton X-100) containing protease inhibitor cocktail (PIC) (Roche Applied Science). The lysates were centrifuged for 15 min at 4° C. and 15000 g, and the supernatants were used for immunoprecipitation (IP). IP was performed using anti-FLAG-M2 affinity gel (Sigma-Aldrich) in batch format according to the manufacture's instructions. Immune complexes were washed three times with 500 μl of Kinase Buffer (KB) (50 mM HEPES, pH 7.4, 20 mM MgCl2, 25 μM ATP) and resuspended in 12.5 μl of KB. One fifth of the immuno-complexes was subjected to WB and the rest was used for the kinase assay.
Kinase reactions were carried out in KB in a total volume of 20 μl of in the presence of 1 μCi of [γ-^32P]ATP per reaction. We used 1 μl of the immunoprecipitated ULK3, ULK3(K44R) or ULK3(K139R) mixed with 5 μl of the GLI-M2 immunocomplexes or 5 μl of bacterially expressed and purified His-GLI1 fragments. Kinase reactions were held at 30° C. for 30 min and terminated by adding of 5 μl of 4× Laemmli Sample Buffer. Proteins were resolved by SDS-PAGE. […]

For another data set, the system named is ULK3. Briefly: In vitro kinase assay, autophosphorylation. The following applies: FLAG-tagged protein immunopurified from HEK293 cells, γ-P32-ATP. It is filed as biochemical, human. The protocol: as §1
Kinase reactions were carried out in KB in a total volume of 20 μl of in the presence of 1 μCi of [γ-^32P]ATP per reaction. We used 1 μl of the immunoprecipitated ULK3, ULK3(K44R) or ULK3(K139R) mixed with 5 μl of the GLI-M2 immunocomplexes or 5 μl of bacterially expressed and purified His-GLI1 fragments. Kinase reactions were held at 30° C. for 30 min and terminated by adding of 5 μl of 4× Laemmli Sample Buffer. Proteins were resolved by SDS-PAGE. The gel was dried at 80° C. for 2 h, and autoradiography was performed using Bio-Rad Personal Molecular Imager FX.
To test if ULK3 has an autophosphorylation activity, we expressed FLAG-tagged wild-type ULK3 and mutants ULK3(K44R) and ULK3(K139R) in HEK293 cells, immunopurified and subjected to in vitro kinase assay in the presence of γ-P^32-ATP.

Data set [1] relates to GLI-dependent firefly luciferase activity in Shh-LIGHT2 cells. Briefly: GLI-dependent luciferase assay in Shh-L2 cells. The format is cell-based, mouse. The protocol: Cells were transfected by the expression constructs or respective empty vectors using Polyethylenimine transfection agent (PEI) (Inbio) and as described in [28]. We used 0.25 μg of cDNA per 1 cm^2 of plate surface area for transfections. After 3 h of transfection HEK293, NIH3T3 and Cos1 cells were propagated in the normal growth medium for 48 h. Prior the further analysis the cells were washed twice with PBS. Post-transfectional Shh-L2 cells were grown in the normal growth medium for 24 h and for additional 24 h in the Light medium containing 0.25% FBS, washed once with PBS, lysed in Passive Lysis Buffer (Promega, Madison Wis., USA) (70 ul per well of 24-well plate format) and subjected to luciferase assay.
Luciferase assay was performed as previously described. Briefly, firefly luciferase activity of 12 μl of the Shh-L2 cells lysate was measured using Luciferase Assay Kit (Promega) and galactosidase activity was quantified using Galacto-LightPlus kit (Tropix, Bedford Mass., USA) according to the manufacturer's instructions. Chemiluminicence was measured using Ascent FL Fluoroscan (Thermo Electron Corporation, Waltham Mass., USA) according to the manufacturer's instructions.
We cotransfected the constructs together with GLI-expressing plasmids (or respective empty vector) into Shh-L2 cells and assessed their effect on GLI-dependent firefly luciferase activity. The obtained data was normalized with β-galactosidase values. […] It was able to stimulate the luciferase activity 3.8 times and enhanced the transcriptional activity of over expressed GLI1 and GLI2 approximately 2 and 3.2 times, respectively. The potency of STK36 in the assay was much lower.
In order to examine if the kinase activity of ULK3 is required for the luciferase reporter activation we tested the supposed kinase-deficient variants of ULK3, ULK3(K44R) and ULK3(K139R) in the same assay. […] We also tested the effect of ULK3 and the mutants on the luciferase reporter when the SHH pathway was activated by cotransfection with pShhN (plasmid expressing biologically active part of SHH).

B1: FLAG-tagged ULK3(K44R) (protein)
chain: MAGPGWGPPRLDGFILTERLGSGTYATVYKAYAKKDTREVVAIRCVAKKSLNKASVENLLTEIEILKGIRHPHIVQLKDFQWDSDNIYLIMEFCAGGDLSRFIHTRRILPEKVARVFMQQLASALQFLHERNISHLDLKPQNILLSSLEKPHLKLADFGFAQHMSPWDEKHVLRGSPLYMAPEMVCQRQYDARVDLWSMGVILYEALFGQPPFASRSFSELEEKIRSNRVIELPLRPLLSRDCRDLLQRLLERDPSRRISFQDFFAHPWVDLEHMPSGESLGRATALVVQAVKKDQEGDSAAALSLYCKALDFFVPALHYEVDAQRKEAIKAKVGQYVSRAEELKAIVSSSNQALLRQGTSARDLLREMARDKPRLLAALEVASAAMAKEEAAGGEQDALDLYQHSLGELLLLLAAEPPGRRRELLHTEVQNLMARAEYLKEQVKMRESRWEADTLDKEGLSESVRSSCTLQ
Consider B1, for which, in the data set with FLAG-tagged GLI2, P10070, the “in vitro kinase assay, phosphorylation signal (32P autoradiography)” value was “The mutant ULK3(K44R) could slightly phosphorylate GLI2 (data not shown)”. Moreover, the “phosphorylation of GLI2” value in the data set with GLI2 is reported as “slightly phosphorylate”. In addition, the autophosphorylation activity entry in the data set with ULK3 is on record as “reduced efficiency in autophosphorylation”. Moreover, the “enhancement of transcriptional activity of overexpressed GLI1” value in data set [1] (cotransfected with GLI1, Shh-L2 cells) is “neither of the mutants had an effect”. Moreover, the “enhancement of transcriptional activity of overexpressed GLI2” value in data set [1] (cotransfected with GLI2, Shh-L2 cells) was “some residual activity”. Moreover, the “induction of luciferase activity with activated SHH pathway” value in data set [1] (cotransfection with pShhN, Shh-L2 cells) is given as 1.7 times.
